Values joined by “and” are separate entries in the source; they are usually repeats but may differ in a detail not shown here. Equal values may be shown once. Values belong to the substance of their own block, whether it stands above or below them.
How the values were obtained:
[1] = target: recombinant cyno monkey PCSK9 protein (cyno monkey); experiment: ELISA, biotin-cyno PCSK9 on streptavidin plate; antibody 0.067 nM
[2] = target: recombinant human PCSK9 protein, His-tagged (Immunogen A, hPCSK9-His) (human) (UniProt Q8NBP7); experiment: ELISA, biotin-hPCSK9-His on streptavidin plate; antibody 66.67 nM
[3] = target: recombinant human PCSK9 protein, His-tagged (Immunogen A, hPCSK9-His) (human) (UniProt Q8NBP7); experiment: ELISA, biotin-hPCSK9-His on streptavidin plate; antibody 0.000067 nM
[4] = target: recombinant human PCSK9 protein, His-tagged (Immunogen A, hPCSK9-His) (human) (UniProt Q8NBP7); experiment: blocking ELISA, biotin-hPCSK9-His on coated LDLR ECD-His; antibody 40 nM
[5] = target: recombinant cyno monkey PCSK9 protein (cyno monkey); experiment: ELISA, biotin-cyno PCSK9 on streptavidin plate; antibody 66.67 nM
[6] = target: recombinant cyno monkey PCSK9 protein (cyno monkey); experiment: ELISA, biotin-cyno PCSK9 on streptavidin plate; antibody 6.67 nM
[7] = target: recombinant human PCSK9 protein, His-tagged (Immunogen A, hPCSK9-His) (human) (UniProt Q8NBP7); experiment: ELISA, biotin-hPCSK9-His on streptavidin plate; antibody 6.67 nM
[8] = target: recombinant human PCSK9 protein, His-tagged (Immunogen A, hPCSK9-His) (human) (UniProt Q8NBP7); experiment: blocking ELISA, biotin-hPCSK9-His on coated LDLR ECD-His; antibody 0.06 nM
[9] = target: recombinant cyno monkey PCSK9 protein (cyno monkey); experiment: ELISA, biotin-cyno PCSK9 on streptavidin plate; antibody 0.000067 nM
[10] = target: recombinant human PCSK9 protein, His-tagged (Immunogen A, hPCSK9-His) (human) (UniProt Q8NBP7); experiment: ELISA, biotin-hPCSK9-His on streptavidin plate; antibody 0.67 nM
[11] = target: recombinant human PCSK9 protein, His-tagged (Immunogen A, hPCSK9-His) (human) (UniProt Q8NBP7); experiment: blocking ELISA, biotin-hPCSK9-His on coated LDLR ECD-His; antibody 1.6 nM
[12] = target: recombinant cyno monkey PCSK9 protein (cyno monkey); experiment: ELISA, biotin-cyno PCSK9 on streptavidin plate; antibody 0.67 nM
[13] = target: recombinant cyno monkey PCSK9 protein (cyno monkey); experiment: ELISA, biotin-cyno PCSK9 on streptavidin plate; antibody 0.0067 nM
[14] = target: recombinant human PCSK9 protein, His-tagged (Immunogen A, hPCSK9-His) (human) (UniProt Q8NBP7); experiment: ELISA, biotin-hPCSK9-His on streptavidin plate; antibody 0 nM (blank)
[15] = target: recombinant human PCSK9 protein, His-tagged (Immunogen A, hPCSK9-His) (human) (UniProt Q8NBP7); experiment: blocking ELISA, biotin-hPCSK9-His on coated LDLR ECD-His; antibody 0.01 nM
[16] = target: recombinant human PCSK9 protein, His-tagged (Immunogen A, hPCSK9-His) (human) (UniProt Q8NBP7); experiment: ELISA, biotin-hPCSK9-His on streptavidin plate; antibody 0.067 nM
[17] = target: recombinant human PCSK9 protein, His-tagged (Immunogen A, hPCSK9-His) (human) (UniProt Q8NBP7); experiment: blocking ELISA, biotin-hPCSK9-His on coated LDLR ECD-His; antibody 200 nM
[18] = target: recombinant cyno monkey PCSK9 protein (cyno monkey); experiment: ELISA, biotin-cyno PCSK9 on streptavidin plate; antibody 0 nM (blank)
[19] = target: recombinant human PCSK9 protein, His-tagged (Immunogen A, hPCSK9-His) (human) (UniProt Q8NBP7); experiment: blocking ELISA, biotin-hPCSK9-His on coated LDLR ECD-His; antibody 0.32 nM
[20] = target: recombinant human PCSK9 protein, His-tagged (Immunogen A, hPCSK9-His) (human) (UniProt Q8NBP7); experiment: blocking ELISA, biotin-hPCSK9-His on coated LDLR ECD-His; antibody 8 nM
[21] = target: recombinant human PCSK9 protein, His-tagged (Immunogen A, hPCSK9-His) (human) (UniProt Q8NBP7); experiment: ELISA, biotin-hPCSK9-His on streptavidin plate; antibody 0.00067 nM
[22] = target: recombinant human PCSK9 protein, His-tagged (Immunogen A, hPCSK9-His) (human) (UniProt Q8NBP7); experiment: ELISA, biotin-hPCSK9-His on streptavidin plate; antibody 0.0067 nM
[23] = target: recombinant cyno monkey PCSK9 protein (cyno monkey); experiment: ELISA, biotin-cyno PCSK9 on streptavidin plate; antibody 0.00067 nM
[24] = target: recombinant human PCSK9-His protein (Immunogen A) (human) (UniProt Q8NBP7); experiment: SPR, Biacore T200; antibody captured by anti-human Fc
[25] = target: recombinant cyno monkey PCSK9 protein (cyno monkey); experiment: ELISA; antibody 0 nM
[26] = target: recombinant human PCSK9-His protein (Immunogen A) (human) (UniProt Q8NBP7); experiment: ELISA of PCSK9 binding to LDLR ECD; antibody 0 nM
[27] = target: recombinant human PCSK9-His protein (Immunogen A) (human) (UniProt Q8NBP7); experiment: ELISA of PCSK9 binding to LDLR ECD; antibody 200 nM
[28] = target: recombinant cyno monkey PCSK9 protein (cyno monkey); experiment: ELISA; antibody 66.67 nM
[29] = target: recombinant human PCSK9-His protein (Immunogen A) (human) (UniProt Q8NBP7); experiment: ELISA; antibody 66.67 nM
[30] = target: recombinant cyno monkey PCSK9 protein (cyno monkey); experiment: ELISA; antibody 0.000067 nM
[31] = target: recombinant cyno monkey PCSK9 protein (cyno monkey); experiment: ELISA; antibody 0.67 nM
[32] = target: recombinant human PCSK9^D374Y protein (human) (UniProt Q8NBP7); experiment: ELISA of PCSK9^D374Y binding to LDLR ECD; antibody 0.06 nM
[33] = target: recombinant cyno monkey PCSK9 protein (cyno monkey); experiment: ELISA; antibody 6.67 nM
[34] = target: recombinant cyno monkey PCSK9 protein (cyno monkey); experiment: ELISA; antibody 0 nM; remark: listed apart in the source
[35] = target: recombinant cyno monkey PCSK9 protein (cyno monkey); experiment: ELISA; antibody 0.00067 nM
[36] = target: recombinant human PCSK9-His protein (Immunogen A) (human) (UniProt Q8NBP7); experiment: ELISA of PCSK9 binding to LDLR ECD; antibody 40 nM
[37] = target: recombinant human PCSK9-His protein (Immunogen A) (human) (UniProt Q8NBP7); experiment: ELISA of PCSK9 binding to LDLR ECD; antibody 8 nM

recombinant cyno monkey PCSK9 protein (cyno monkey), sequence (A8T666 31-692 limits assumed): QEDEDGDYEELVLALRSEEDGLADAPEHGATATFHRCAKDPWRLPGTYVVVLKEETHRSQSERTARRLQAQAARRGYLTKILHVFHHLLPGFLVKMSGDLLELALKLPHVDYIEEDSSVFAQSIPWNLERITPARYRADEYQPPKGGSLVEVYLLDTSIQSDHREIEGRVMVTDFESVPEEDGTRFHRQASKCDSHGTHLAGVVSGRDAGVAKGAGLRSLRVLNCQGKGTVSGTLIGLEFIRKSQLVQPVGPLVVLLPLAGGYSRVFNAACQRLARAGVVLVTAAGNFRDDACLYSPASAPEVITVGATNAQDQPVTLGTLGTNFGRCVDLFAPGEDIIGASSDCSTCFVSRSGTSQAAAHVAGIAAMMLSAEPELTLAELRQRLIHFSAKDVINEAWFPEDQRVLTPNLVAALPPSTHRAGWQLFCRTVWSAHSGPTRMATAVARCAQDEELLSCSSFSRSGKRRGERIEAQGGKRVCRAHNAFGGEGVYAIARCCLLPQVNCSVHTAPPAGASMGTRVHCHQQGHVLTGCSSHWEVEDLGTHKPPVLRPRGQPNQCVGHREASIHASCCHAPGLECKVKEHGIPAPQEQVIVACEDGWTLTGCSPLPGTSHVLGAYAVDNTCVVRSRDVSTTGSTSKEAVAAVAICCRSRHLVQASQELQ

OD450 nm [1]: 0.12 OD450 nm | OD450 nm [2]: 0.11 OD450 nm | OD450 nm [3]: 0.11 OD450 nm | OD450 nm (PCSK9 bound to LDLR) [4]: 1.01 OD450 nm and 1.11 OD450 nm | OD450 nm [5]: 0.18 OD450 nm | OD450 nm [6]: 0.17 OD450 nm | OD450 nm [7]: 0.1 OD450 nm | OD450 nm (PCSK9 bound to LDLR) [8]: 1.26 OD450 nm and 1.2 OD450 nm | OD450 nm [9]: 0.19 OD450 nm | OD450 nm [10]: 0.09 OD450 nm | OD450 nm (PCSK9 bound to LDLR) [11]: 1.09 OD450 nm and 1.12 OD450 nm | OD450 nm [12]: 0.12 OD450 nm | OD450 nm [13]: 0.12 OD450 nm | OD450 nm [14]: 0.1 OD450 nm | OD450 nm (PCSK9 bound to LDLR) [15]: 1.22 OD450 nm and 1.18 OD450 nm | OD450 nm [16]: 0.12 OD450 nm and 0.09 OD450 nm | OD450 nm (PCSK9 bound to LDLR) [17]: 1.22 OD450 nm and 1.14 OD450 nm | OD450 nm [18]: 0.15 OD450 nm | OD450 nm (PCSK9 bound to LDLR) [19]: 1.2 OD450 nm and 1.13 OD450 nm | OD450 nm (PCSK9 bound to LDLR) [20]: 1.02 OD450 nm and 1.07 OD450 nm | OD450 nm [21]: 0.18 OD450 nm and 0.09 OD450 nm | OD450 nm [22]: 0.18 OD450 nm and 0.1 OD450 nm | OD450 nm [23]: 0.16 OD450 nm
Substance: IgG control (rat IgG) (antibody)

Kd [24]: < 0.122 nM | koff [24]: 0.000822 s⁻¹ | kon [24]: < 100000 M⁻¹ s⁻¹
Substance: Evolocumab, Amgen (antibody)

OD450 nm [25]: 0.06 OD450 nm | OD450 nm [26]: 2.4 OD450 nm | OD450 nm [27]: 1.41 OD450 nm | OD450 nm [28]: 0.81 OD450 nm | OD450 nm [29]: 0.97 OD450 nm | OD450 nm [30]: 0.07 OD450 nm | OD450 nm [31]: 0.08 OD450 nm | OD450 nm [32]: 1.57 OD450 nm | OD450 nm [33]: 0.15 OD450 nm | OD450 nm [34]: 0.07 OD450 nm | OD450 nm [35]: 0.07 OD450 nm | OD450 nm [36]: 1.43 OD450 nm | OD450 nm [37]: 1.76 OD450 nm
Substance: IgG control (human IgG) (antibody)

Kd [24]: 0.394 nM | koff [24]: 0.000318 s⁻¹ | kon [24]: 806000 M⁻¹ s⁻¹
Substance: Alirocumab, Regeneron (antibody)
